Assay results reported in US9701713B2, “Compositions and methods for introduction of macromolecules into cells” (The Regents of the University of Colorado, a body corporate, priority 2011, dated 2017).

B1: αB crystallin: recombinant human αB-crystallin (HSPB5) without transduction peptide, used as comparator (protein)
chain: MDIAIHHPWIRRPFFPFHSPSRLFDQFFGEHLLESDLFPTSTSLSPFYLRPPSFLRAPSWFDTGLSEMRLEKDRFSVNLDVKHFSPEELKVKVLGDVIEVHGKHEERQDEHGFISREFHRKYRIPADVDPLTITSSLSSDGVLTVNGPRKQVSGPERTIPITREEKPAVTAAPKK
B2: TAT-αB crystallin: αB crystallin fused to the TAT cell-penetrating peptide (GRKKRRQRRRPQ) of human immunodeficiency virus (protein)
chain: GRKKRRQRRRPQDIAIHHPWIRRPFFPFHSPSRLFDQFFGEHLLESDLFPTSTSLSPFYLRPPSFLRAPSWFDTGLSEMRLEKDRFSVNLDVKHFSPEELKVKVLGDVIEVHGKHEERQDEHGFISREFHRKYRIPADVDPLTITSSLSSDGVLTVNGPRKQVSGPERTIPITREEKPAVTAAPKK

Legend:
P23H rhodopsin = target: T1, P23H rhodopsin (Homo sapiens, UniProt P08100, P23H); test: Cell model of aggregation-prone P23H rhodopsin; type: cell-based; conditions: aggregation-prone mutant P23H rhodopsin
T1 construct: expressed in transfected cells
Excerpt: As shown, α crystallin prevents aggregation of the aggregation-prone mutant of rhodpsin, P23H rhodopsin.
This mutation is the cause of the major form of retinitis pigmentosa in humans.

human lens cells = test: Cell penetration and retention of AlexaFluor labeled crystallin in human lens cells over 3 days; type: cell-based; conditions: 60 minutes exposure
Protocol: αB crystallin, with or without fusion to the NTD peptide, was labeled with the small molecular weight fluorescent molecule AlexaFluor. It was then combined with tissue culture nutrient media and applied to a culture plate containing human lens cells. After 60 minutes, the culture media were removed, and replaced with culture media without crystallins. Entry and distribution of crystallins was measured over 3 days by observing fluorescence (green). Cell nuclei were stained with Hoechst dye (blue).

[1] = tested on: human lens epithelial cells (HLE B3); test: Uptake of Alexa Fluor 488 labeled crystallins into human lens epithelial cells; type: cell-based; conditions: Alexa Fluor 488 label, equal amounts of protein
Protocol: Since in vitro properties of alpha crystallin were unaffected by the addition of the NTD peptide, the ability of the NTD tag to enhance uptake of client proteins into living cells was investigated. To monitor cell uptake, wild type and NTD tagged crystallins were labeled with Alexa Fluor 488, a small reporter molecule. Equal amounts of protein were added to separate tissue culture plates containing human lens epithelial cells (HLE B3) and analyzed for their uptake into cells. At various times after addition of the protein to the cell media, cells were fixed and analyzed by fluorescent microscopy for cellular uptake of the labeled proteins. […] (See FIG. 1 and FIG. 6).
Further, αA- and αB-crystallins with and without the NTD tag were fluorescently-labeled using the fluorescent reporter molecule Alexa Fluor 488, and were incubated with human lens epithelial cells (HLE B3) and human embryonic kidney cells (HEK293). Time-dependent uptake was measured by fluorescent microscopy. At various times after addition of the protein to the cell media, cells were fixed and analyzed by fluorescent microscopy for cellular uptake of the labeled proteins.

lysozyme = test: Chaperone-like activity: suppression of chemically-induced lysozyme aggregation; type: biochemical; conditions: lysozyme with dithiothreitol at 37° C.
Excerpt: The “Relative Absorbance (360 nm)” of lysozyme increases over time under assay conditions. The absorbance increase is an index of protein aggregation. A reduction in the slope of absorbance increase corresponds to inhibition of lysozyme aggregation.
Recombinant human αA- and αB-crystallins were modified by addition of putative transduction sequences at their N- or C-termini. These proteins were expressed in E. coli and isolated to apparent homogeneity using previously published methods (Cobb et al. 2000). Purified proteins were analyzed by size exclusion chromatography to determine size heterogeneity. CLA was assessed by measuring the ability of candidate proteins to suppress chemically-induced aggregation of substrate protein lysozyme in the presence of dithiothreitol at 37° C.

Row | Molecule | fluorescence of P23H rhodopsin (prevention of aggregation) (P23H rhodopsin) | intracellular crystallin fluorescence (human lens cells; after 48 hours) | intracellular crystallin fluorescence (human lens cells; after 72 hours) | intracellular fluorescence (cellular uptake) [1] | chaperone-like activity (suppression of lysozyme aggregation, absorbance 360 nm) (lysozyme)
1 | alpha crystallin: alpha crystallin with chaperone-like activity applied to cells; b52 and b54 name it αA crystallin | prevented the loss of fluorescence |  |  |  | 
2 | B1 |  | substantially lost | virtually undetectable | comparatively little intracellular fluorescence | effectively suppress lysozyme aggregation
3 | B2 |  |  |  |  | does not suppress lysozyme aggregation
